T1: FcγRIIb extracellular domain with C-terminal His tag (human, UniProt P31994 43-217)
T1 construct: extracellular domain; also called FcgRIIb; 2b
T1 sequence (looked up): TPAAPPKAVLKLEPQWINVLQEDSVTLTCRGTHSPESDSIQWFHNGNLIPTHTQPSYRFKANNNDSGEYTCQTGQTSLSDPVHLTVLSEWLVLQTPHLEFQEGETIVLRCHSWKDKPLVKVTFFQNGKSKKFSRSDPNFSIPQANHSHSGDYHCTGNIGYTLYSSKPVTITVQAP


Molecular target: T1, FcγRIIb extracellular domain with …
Assay: SPR (Biacore), relative binding
Description: Analysis of interaction between objective antibody and the FcγR was carried out using Biacore T100 (GE Healthcare). HBS-EP+ (GE Healthcare) was used as the running buffer, and the measurement temperature was set to 25° C. Chips produced by immobilizing the antigen peptide by the amine coupling method to a Series S Sencor Chip CM5 (GE Healthcare), or alternatively, chips produced by allowing preliminarily biotinylated antigen peptides to interact with and immobilize onto a Series S Sensor Chip SA (certified) (GE Healthcare) were used. Antibodies of interest were captured onto an antigen peptide-immobilized chip, and allowed to interact to each FcγR diluted with running buffer. To regenerate and repeatedly use the chip, the antibodies captured on the chip were washed off by reacting 10 mM glycine-HCl, pH 1.5.

| Binder | Ho/Con_2b | He/Con_2b |
| --- | --- | --- |
| GpH7-A5/GpH7-B3 variant G237_02A/GpL16-k0 (antibody, human IgG1, kappa, also called He Ab G237_02A) heavy 1: not shown heavy 2: not shown light: DIVMTQSPLSLPVTPGEPASISCQASESLVHSNRNTYLHWYLQKPGQSPQLLIYKVSNRFSGVPDRFSGSGSGTDFTLKISRVEAEDVGVYYCSQNTHVPPTFGQGTKVEIERTVAAPSVFIFPPSDEQLKSGTASVVCLLNNFYPREAKVQWKVDNALQSGNSQESVTEQDSKDSTYSLSSTLTLSKADYEKHKVYACEVTHQGLSSPVTKSFNRGEC |  | 124 % of HeCon Ab GpH7-A5/GpH7-B3/GpL16-k0 |
| GpH7-B3 variant T335_13S/GpL16-k0 (antibody, human IgG1, kappa, also called Ho Ab T335_13S) heavy: not shown light: DIVMTQSPLSLPVTPGEPASISCQASESLVHSNRNTYLHWYLQKPGQSPQLLIYKVSNRFSGVPDRFSGSGSGTDFTLKISRVEAEDVGVYYCSQNTHVPPTFGQGTKVEIERTVAAPSVFIFPPSDEQLKSGTASVVCLLNNFYPREAKVQWKVDNALQSGNSQESVTEQDSKDSTYSLSSTLTLSKADYEKHKVYACEVTHQGLSSPVTKSFNRGEC | 95.2 % of HoCon Ab GpH7-B3/GpL16-k0 |  |
| GpH7-A5/GpH7-B3 variant A330_01G/GpL16-k0 (antibody, human IgG1, kappa, also called He Ab A330_01G) heavy 1: not shown heavy 2: not shown light: DIVMTQSPLSLPVTPGEPASISCQASESLVHSNRNTYLHWYLQKPGQSPQLLIYKVSNRFSGVPDRFSGSGSGTDFTLKISRVEAEDVGVYYCSQNTHVPPTFGQGTKVEIERTVAAPSVFIFPPSDEQLKSGTASVVCLLNNFYPREAKVQWKVDNALQSGNSQESVTEQDSKDSTYSLSSTLTLSKADYEKHKVYACEVTHQGLSSPVTKSFNRGEC |  | 104 % of HeCon Ab GpH7-A5/GpH7-B3/GpL16-k0 |
| GpH7-A5/GpH7-B3 variant A327_07I/GpL16-k0 (antibody, human IgG1, kappa, also called He Ab A327_07I) heavy 1: not shown heavy 2: not shown light: DIVMTQSPLSLPVTPGEPASISCQASESLVHSNRNTYLHWYLQKPGQSPQLLIYKVSNRFSGVPDRFSGSGSGTDFTLKISRVEAEDVGVYYCSQNTHVPPTFGQGTKVEIERTVAAPSVFIFPPSDEQLKSGTASVVCLLNNFYPREAKVQWKVDNALQSGNSQESVTEQDSKDSTYSLSSTLTLSKADYEKHKVYACEVTHQGLSSPVTKSFNRGEC |  | 127 % of HeCon Ab GpH7-A5/GpH7-B3/GpL16-k0 |
| GpH7-A5/GpH7-B3 variant G237_09D/GpL16-k0 (antibody, human IgG1, kappa, also called He Ab G237_09D) heavy 1: not shown heavy 2: not shown light: DIVMTQSPLSLPVTPGEPASISCQASESLVHSNRNTYLHWYLQKPGQSPQLLIYKVSNRFSGVPDRFSGSGSGTDFTLKISRVEAEDVGVYYCSQNTHVPPTFGQGTKVEIERTVAAPSVFIFPPSDEQLKSGTASVVCLLNNFYPREAKVQWKVDNALQSGNSQESVTEQDSKDSTYSLSSTLTLSKADYEKHKVYACEVTHQGLSSPVTKSFNRGEC |  | 223 % of HeCon Ab GpH7-A5/GpH7-B3/GpL16-k0 |
| GpH7-A5/GpH7-B3 variant G237_10E/GpL16-k0 (antibody, human IgG1, kappa, also called He Ab G237_10E) heavy 1: not shown heavy 2: not shown light: DIVMTQSPLSLPVTPGEPASISCQASESLVHSNRNTYLHWYLQKPGQSPQLLIYKVSNRFSGVPDRFSGSGSGTDFTLKISRVEAEDVGVYYCSQNTHVPPTFGQGTKVEIERTVAAPSVFIFPPSDEQLKSGTASVVCLLNNFYPREAKVQWKVDNALQSGNSQESVTEQDSKDSTYSLSSTLTLSKADYEKHKVYACEVTHQGLSSPVTKSFNRGEC |  | 114 % of HeCon Ab GpH7-A5/GpH7-B3/GpL16-k0 |

Now from value to binder:

| Ho/Con_2b | He/Con_2b | Binder |
| --- | --- | --- |
| 108 % of HoCon Ab GpH7-B3/GpL16-k0 |  | GpH7-B3 variant T335_10E/GpL16-k0 (antibody, human IgG1, kappa, also called Ho Ab T335_10E) heavy: not shown light: DIVMTQSPLSLPVTPGEPASISCQASESLVHSNRNTYLHWYLQKPGQSPQLLIYKVSNRFSGVPDRFSGSGSGTDFTLKISRVEAEDVGVYYCSQNTHVPPTFGQGTKVEIERTVAAPSVFIFPPSDEQLKSGTASVVCLLNNFYPREAKVQWKVDNALQSGNSQESVTEQDSKDSTYSLSSTLTLSKADYEKHKVYACEVTHQGLSSPVTKSFNRGEC |
|  | 148 % of HeCon Ab GpH7-A5/GpH7-B3/GpL16-k0 | GpH7-A5/GpH7-B3 variant G237_08L/GpL16-k0 (antibody, human IgG1, kappa, also called He Ab G237_08L) heavy 1: not shown heavy 2: not shown light: DIVMTQSPLSLPVTPGEPASISCQASESLVHSNRNTYLHWYLQKPGQSPQLLIYKVSNRFSGVPDRFSGSGSGTDFTLKISRVEAEDVGVYYCSQNTHVPPTFGQGTKVEIERTVAAPSVFIFPPSDEQLKSGTASVVCLLNNFYPREAKVQWKVDNALQSGNSQESVTEQDSKDSTYSLSSTLTLSKADYEKHKVYACEVTHQGLSSPVTKSFNRGEC |
| 97.3 % of HoCon Ab GpH7-B3/GpL16-k0 |  | GpH7-B3 variant T335_19Q/GpL16-k0 (antibody, human IgG1, kappa, also called Ho Ab T335_19Q) heavy: not shown light: DIVMTQSPLSLPVTPGEPASISCQASESLVHSNRNTYLHWYLQKPGQSPQLLIYKVSNRFSGVPDRFSGSGSGTDFTLKISRVEAEDVGVYYCSQNTHVPPTFGQGTKVEIERTVAAPSVFIFPPSDEQLKSGTASVVCLLNNFYPREAKVQWKVDNALQSGNSQESVTEQDSKDSTYSLSSTLTLSKADYEKHKVYACEVTHQGLSSPVTKSFNRGEC |
| 231 % of HoCon Ab GpH7-B3/GpL16-k0 |  | GpH7-B3 variant V266_06M/GpL16-k0 (antibody, human IgG1, kappa, also called Ho Ab V266_06M) heavy: not shown light: DIVMTQSPLSLPVTPGEPASISCQASESLVHSNRNTYLHWYLQKPGQSPQLLIYKVSNRFSGVPDRFSGSGSGTDFTLKISRVEAEDVGVYYCSQNTHVPPTFGQGTKVEIERTVAAPSVFIFPPSDEQLKSGTASVVCLLNNFYPREAKVQWKVDNALQSGNSQESVTEQDSKDSTYSLSSTLTLSKADYEKHKVYACEVTHQGLSSPVTKSFNRGEC |

Reference: patent US20150344570A1 (published 2015)
